According to publication PMC10401710, “Cell Surface Labeling and Detection of Protein Tyrosine Kinase 7 via Covalent Aptamers”:

What was measured:
PTK7-CFP = target: T1, PTK7-CFP (UniProt Q13308); assay: covalent biotin transfer on cells, SA-HRP blot; details: EC50 of label transfer, not equilibrium Kd; transfected HEK293T, 1 h, 5 mM MgCl2; T27 replaced by 5-octadiynyl-dU, clicked to azide-tethered N-acyl sulfonamide biotin electrophile 1; DPBS with 5 mM MgCl2, 4.5 g/L glucose, pH 7.4, 37 C, 1 h (cells: plus 0.1 mg/mL yeast tRNA); read-out is proximity-driven covalent labeling, no equilibrium Kd …
T1 sequence: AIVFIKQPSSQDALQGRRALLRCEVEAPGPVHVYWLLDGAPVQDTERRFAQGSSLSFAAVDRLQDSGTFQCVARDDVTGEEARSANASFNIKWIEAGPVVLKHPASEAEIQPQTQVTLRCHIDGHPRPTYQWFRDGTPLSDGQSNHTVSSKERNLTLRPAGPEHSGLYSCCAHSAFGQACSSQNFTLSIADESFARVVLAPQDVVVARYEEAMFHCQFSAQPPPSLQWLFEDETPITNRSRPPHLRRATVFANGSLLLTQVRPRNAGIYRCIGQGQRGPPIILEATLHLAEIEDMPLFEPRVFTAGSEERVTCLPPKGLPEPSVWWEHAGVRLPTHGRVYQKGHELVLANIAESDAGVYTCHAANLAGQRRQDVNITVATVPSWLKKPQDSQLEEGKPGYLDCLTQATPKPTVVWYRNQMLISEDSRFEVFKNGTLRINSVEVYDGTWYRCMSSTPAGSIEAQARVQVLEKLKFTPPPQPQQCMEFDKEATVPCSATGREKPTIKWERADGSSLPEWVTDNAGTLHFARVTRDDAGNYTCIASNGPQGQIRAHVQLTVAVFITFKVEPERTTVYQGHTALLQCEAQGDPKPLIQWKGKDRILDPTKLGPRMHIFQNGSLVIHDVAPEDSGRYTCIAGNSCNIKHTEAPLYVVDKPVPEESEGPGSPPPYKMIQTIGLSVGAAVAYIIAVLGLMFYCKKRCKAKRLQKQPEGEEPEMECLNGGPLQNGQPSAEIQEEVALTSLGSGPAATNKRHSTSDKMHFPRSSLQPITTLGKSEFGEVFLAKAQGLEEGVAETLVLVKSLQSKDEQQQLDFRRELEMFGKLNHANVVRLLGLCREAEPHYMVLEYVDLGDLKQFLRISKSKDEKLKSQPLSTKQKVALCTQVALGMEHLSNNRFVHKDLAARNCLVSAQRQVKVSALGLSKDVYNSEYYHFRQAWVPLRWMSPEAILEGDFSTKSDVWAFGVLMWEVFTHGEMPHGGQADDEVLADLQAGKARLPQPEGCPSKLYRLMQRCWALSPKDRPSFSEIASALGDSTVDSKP

[1] = target: T2, PTK7 (recombinant, R&D Biosystems NC2081082) (UniProt Q13308 31-703); assay: covalent biotin transfer, SA-HRP blot; EC50 of label transfer, not equilibrium Kd; 100 nM PTK7, 1 h, 37 C, 5 mM MgCl2; DPBS with 5 mM MgCl2, 4.5 g/L glucose, pH 7.4, 37 C, 1 h (cells: plus 0.1 mg/mL yeast tRNA); read-out is proximity-driven covalent labeling, no equilibrium Kd measured; details: protein: commercial; label: transferable biotin; stem-loop (UNIFold prediction)
T2 sequence: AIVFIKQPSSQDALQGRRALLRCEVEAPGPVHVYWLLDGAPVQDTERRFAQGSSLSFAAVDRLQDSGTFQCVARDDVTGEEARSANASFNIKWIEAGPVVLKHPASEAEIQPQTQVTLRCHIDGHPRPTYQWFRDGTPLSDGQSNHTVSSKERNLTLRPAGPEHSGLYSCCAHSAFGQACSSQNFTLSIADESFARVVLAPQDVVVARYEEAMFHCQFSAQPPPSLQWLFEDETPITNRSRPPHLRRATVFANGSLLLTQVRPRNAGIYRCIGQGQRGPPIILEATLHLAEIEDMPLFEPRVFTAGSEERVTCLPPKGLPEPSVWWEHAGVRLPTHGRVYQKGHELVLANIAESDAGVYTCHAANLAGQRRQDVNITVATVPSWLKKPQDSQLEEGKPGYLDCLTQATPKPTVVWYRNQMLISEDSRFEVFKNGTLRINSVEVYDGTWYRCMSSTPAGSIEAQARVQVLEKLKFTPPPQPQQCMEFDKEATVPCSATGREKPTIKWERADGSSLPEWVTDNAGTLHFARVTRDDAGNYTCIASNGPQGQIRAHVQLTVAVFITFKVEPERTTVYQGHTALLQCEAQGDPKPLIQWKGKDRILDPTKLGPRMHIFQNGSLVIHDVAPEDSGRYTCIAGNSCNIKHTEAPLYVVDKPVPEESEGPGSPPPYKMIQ

Molecule	K half (PTK7-CFP) [nM]	apparent K (half saturation) [1] [nM]
ATCTAACTGCTGCGCCGCCGGGAAAATACTGTACGGTTAGA [sgc8c(27)-1]	251	
ATCTAACTGCTGCGCCGCCGGGAAAATACTGTACGGTTAGA (structured_DNA, T27 replaced by 5-octadiynyl-dU, clicked to azide-tethered N-acyl sulfonamide biotin electrophile 1) [sgc8c(27)-1]		203
